Measured values from the RNAGym collection of RNA variant scans (doi:10.1093/molbev/msab373).

B1: Azoarcus group I ribozyme (parent)
chain: GUGCCUUGCGCCGGGAAACCACGCAAGGGAUGGUGUCAAAUUCGGCGAAACCUAAGCGCCCGCCCGGGCGUAUGGCAACGCCGAGCCAAGCUUCGGCGCCUGCGCCGAUGAAGGUGUAGAGACUAGACGGCACCCACCUAAGGCAAACGCUAUGGUGAAGGCAUAGUCCAGGGAGUGGCGAAAGUCACACAAACCGG

Variants of: B1
Assay: reverse-splicing fitness (ratio to wild type); higher = more active; in vitro selection; Mg2+ level not given
How it was run: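 An in vitro group I ribozyme library with randomized positions was T7-transcribed and gel-purified. In triplicate, 10 pmol RNA in EPPS pH 7.5 was reacted with 50 pmoles of a 30-nt RNA substrate for 1 h at 37 °C across several added MgCl2 levels (1–48 mM), then stopped with EDTA. Products were reverse transcribed from a substrate-complementary primer, PCR-amplified and sequenced (HiSeq 4000). Fitness is a variant's read proportion after selection over that before, normalised to wild type.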

Going from GUGCCUUGCGCCGGGAAACCACGCAAGGGAUGGUGUCAAAUUCGGCGAAACCUAAGCGCCCGCCCGGGCGUAUGGCAACGCGGAGCCAAGCUUCGGCGCCUGCGCCGAUGGAGGUGUAGCGACUAGACGGCACCCACCUAAGGCUAACGAUAUGGUGAAGGCAUAGUCUAGGGAGAGGCGAAAGUCACACAAACCGG [C82G A111G A120C A145U C150A C169U U176A] to GUGCCUUGCGCCGGGAAACCACGCAAGGGAUGGUGUCAAAUUCGGCGAAACCUAAGCGCCCGCCCGGGCGUAUGGCAACGCGGAGCCAAGCUUCGGCGCCUGCGCCGAUGGAGGUGUAGCGACUAGACGGCACCCACCUAAGGCUAACGAUAUGGUGAAGGCAUAGUCUAGGGAGGGGCGAAAGUCACACAAACCGG [C82G A111G A120C A145U C150A C169U U176G], the reverse-splicing fitness falls from 0.0146 to 0.00626.

Compared with GUGCCUUGCGCCGGGAAACCACGCAAGGGAUGGUGUCAAAUUCGGCGAAACCUAAGCGCCCGCCCGGGCGUAUGGCAACGCGGAGCCAAGCUUCGGCGCCUGCGCCGAUGGAGGUGUAGCGACUAGACGGCACCCACCUAAGGCUAACGAUAUGGUGAAGGCAUAGUCUAGGGAGCGGCGAAAGUCACACAAACCGG [C82G A111G A120C A145U C150A C169U U176C], GUGCCUUGCGCCGGGAAACCACGCAAGGGAUGGUGUCAAAUUCGGCGAAACCUAAGCGCCCGCCCGGGCGUAUGGCAACGCGGAGCCAAGCUUCGGCGCCUGCGCCGAUGGAGGUGUAGCGACUAGACGGCACCCACCUAAGGCGAACGCUAUGGUGAAGGCAUAGUCCAGGGAGGGGCGAAAGUCACACAAACCGG [C82G A111G A120C A145G U176G] is lower in reverse-splicing fitness: 0.0136 for the first, 0.00851 for the second.

Compared with GUGCCUUGCGCCGGGAAACCACGCAAGGGAUGGUGUCAAAUUCGGCGAAACCUAAGCGCCCGCCCGGGCGUAUGGCAACGCGGAGCCAAGCUUCGGCGCCUGCGCCGAUGGAGGUGUAGCGACUAGACGGCACCCACCUAAGGCUAACGAUAUGGUGAAGGCAUAGUCGAGGGAGAGGCGAAAGUCACACAAACCGG [C82G A111G A120C A145U C150A C169G U176A], GUGCCUUGCGCCGGGAAACCACGCAAGGGAUGGUGUCAAAUUCGGCGAAACCUAAGCGCCCGCCCGGGCGUAUGGCAACGCGGAGCCAAGCUUCGGCGCCUGCGCCGAUGGAGGUGUAGCGACUAGACGGCACCCACCUAAGGCUAACGAUAUGGUGAAGGCAUAGUCGAGGGAGCGGCGAAAGUCACACAAACCGG [C82G A111G A120C A145U C150A C169G U176C] is higher in reverse-splicing fitness: 0.0168 for the first, 0.0209 for the second.

First: GUGCCUUGCGCCGGGAAACCACGCAAGGGAUGGUGUCAAAUUCGGCGAAACCUAAGCGCCCGCCCGGGCGUAUGGCAACGCGGAGCCAAGCUUCGGCGCCUGCGCCGAUGGAGGUGUAGCGACUAGACGGCACCCACCUAAGGCUAACGAUAUGGUGAAGGCAUAGUCGAGGGAGGGGCGAAAGUCACACAAACCGG [C82G A111G A120C A145U C150A C169G U176G]
Second: GUGCCUUGCGCCGGGAAACCACGCAAGGGAUGGUGUCAAAUUCGGCGAAACCUAAGCGCCCGCCCGGGCGUAUGGCAACGCGGAGCCAAGCUUCGGCGCCUGCGCCGAUGGAGGUGUAGCGACUAGACGGCACCCACCUAAGGCUAACGAUAUGGUGAAGGCAUAGUCCAGGGAGUGGCGAAAGUCACACAAACCGG [C82G A111G A120C A145U C150A]
The reverse-splicing fitness of the first is lower: 0.00622 for the first, 0.0142 for the second.

First: GUGCCUUGCGCCGGGAAACCACGCAAGGGAUGGUGUCAAAUUCGGCGAAACCUAAGCGCCCGCCCGGGCGUAUGGCAACGCGGAGCCAAGCUUCGGCGCCUGCGCCGAUGGAGGUGUAGCGACUAGACGGCACCCACCUAAGGCUAACGGUAUGGUGAAGGCAUAGUCCAGGGAGUGGCGAAAGUCACACAAACCGG [C82G A111G A120C A145U C150G]
Second: GUGCCUUGCGCCGGGAAACCACGCAAGGGAUGGUGUCAAAUUCGGCGAAACCUAAGCGCCCGCCCGGGCGUAUGGCAACGCGGAGCCAAGCUUCGGCGCCUGCGCCGAUGGAGGUGUAGCGACUAGACGGCACCCACCUAAGGCUAACGGUAUGGUGAAGGCAUAGUCUAGGGAGUGGCGAAAGUCACACAAACCGG [C82G A111G A120C A145U C150G C169U]
The reverse-splicing fitness of the first is higher: 0.0127 for the first, 0.00899 for the second.

Compared with GUGCCUUGCGCCGGGAAACCACGCAAGGGAUGGUGUCAAAUUCGGCGAAACCUAAGCGCCCGCCCGGGCGUAUGGCAACGCGGAGCCAAGCUUCGGCGCCUGCGCCGAUGGAGGUGUAGCGACUAGACGGCACCCACCUAAGGCUAACGGUAUGGUGAAGGCAUAGUCGAGGGAGUGGCGAAAGUCACACAAACCGG [C82G A111G A120C A145U C150G C169G], GUGCCUUGCGCCGGGAAACCACGCAAGGGAUGGUGUCAAAUUCGGCGAAACCUAAGCGCCCGCCCGGGCGUAUGGCAACGCGGAGCCAAGCUUCGGCGCCUGCGCCGAUGGAGGUGUAGCGACUAGACGGCACCCACCUAAGGCUAACGGUAUGGUGAAGGCAUAGUCAAGGGAGUGGCGAAAGUCACACAAACCGG [C82G A111G A120C A145U C150G C169A] is higher in reverse-splicing fitness: 0.00697 for the first, 0.00918 for the second.

Compared with GUGCCUUGCGCCGGGAAACCACGCAAGGGAUGGUGUCAAAUUCGGCGAAACCUAAGCGCCCGCCCGGGCGUAUGGCAACGCGGAGCCAAGCUUCGGCGCCUGCGCCGAUGGAGGUGUAGCGACUAGACGGCACCCACCUAAGGCUAACGGUAUGGUGAAGGCAUAGUCUAGGGAGCGGCGAAAGUCACACAAACCGG [C82G A111G A120C A145U C150G C169U U176C], GUGCCUUGCGCCGGGAAACCACGCAAGGGAUGGUGUCAAAUUCGGCGAAACCUAAGCGCCCGCCCGGGCGUAUGGCAACGCGGAGCCAAGCUUCGGCGCCUGCGCCGAUGGAGGUGUAGCGACUAGACGGCACCCACCUAAGGCUAACGGUAUGGUGAAGGCAUAGUCUAGGGAGAGGCGAAAGUCACACAAACCGG [C82G A111G A120C A145U C150G C169U U176A] is lower in reverse-splicing fitness: 0.0131 for the first, 0.0078 for the second.

GUGCCUUGCGCCGGGAAACCACGCAAGGGAUGGUGUCAAAUUCGGCGAAACCUAAGCGCCCGCCCGGGCGUAUGGCAACGCGGAGCCAAGCUUCGGCGCCUGCGCCGAUGGAGGUGUAGCGACUAGACGGCACCCACCUAAGGCUAACGGUAUGGUGAAGGCAUAGUCGAGGGAGCGGCGAAAGUCACACAAACCGG [C82G A111G A120C A145U C150G C169G U176C] showed a reverse-splicing fitness of 0.0102.
